Residue numbers refer to the chain shown, from its start.
Experiments:
Experiment in all cases: MST; Monolith NT.115; 8.32 nM His-tagged DHS labelled with RED-tris-NTA, eIF5A titrated 0.00175-57.5 uM; 50 mM Tris, 200 mM NaCl, 5 mM beta-ME pH 8; free buffer
Details in all cases: both partners purified
[1] = biological target: T1, deoxyhypusine synthase E137A, His-tagged (human, UniProt P49366 1-369, E137A)
T1 construct: deoxyhypusine synthase (DHS), Homo sapiens, UniProt P49366, residues 1-369; source: E. coli, purified; His-tagged protein labelled with RED-tris-NTA for MST; not shown: His6, N-terminal, kept
T1 sequence (looked up): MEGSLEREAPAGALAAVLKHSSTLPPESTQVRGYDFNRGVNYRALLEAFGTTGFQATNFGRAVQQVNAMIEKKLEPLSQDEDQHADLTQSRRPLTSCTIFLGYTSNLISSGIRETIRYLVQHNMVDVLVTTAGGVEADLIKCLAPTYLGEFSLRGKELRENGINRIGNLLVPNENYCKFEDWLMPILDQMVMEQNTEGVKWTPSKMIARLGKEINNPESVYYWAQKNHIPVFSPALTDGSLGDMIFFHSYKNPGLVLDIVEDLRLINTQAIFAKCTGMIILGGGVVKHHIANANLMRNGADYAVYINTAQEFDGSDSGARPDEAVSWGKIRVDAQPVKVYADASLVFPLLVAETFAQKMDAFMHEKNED

[2] = biological target: T2, deoxyhypusine synthase delY305_I306, patient-derived variant, His-tagged (human, UniProt P49366 1-369, delY305_I306)
T2 construct: deoxyhypusine synthase (DHS), Homo sapiens, UniProt P49366, residues 1-369, pathological variant lacking Y305 and I306; Primarily dimeric by mass photometry; also called DHS^delY305_I306; DHS^del305Y_306I; source: E. coli, purified from the soluble fraction; His-tagged protein labelled with RED-tris-NTA for MST; not shown: His6, N-terminal, kept
T2 sequence (looked up): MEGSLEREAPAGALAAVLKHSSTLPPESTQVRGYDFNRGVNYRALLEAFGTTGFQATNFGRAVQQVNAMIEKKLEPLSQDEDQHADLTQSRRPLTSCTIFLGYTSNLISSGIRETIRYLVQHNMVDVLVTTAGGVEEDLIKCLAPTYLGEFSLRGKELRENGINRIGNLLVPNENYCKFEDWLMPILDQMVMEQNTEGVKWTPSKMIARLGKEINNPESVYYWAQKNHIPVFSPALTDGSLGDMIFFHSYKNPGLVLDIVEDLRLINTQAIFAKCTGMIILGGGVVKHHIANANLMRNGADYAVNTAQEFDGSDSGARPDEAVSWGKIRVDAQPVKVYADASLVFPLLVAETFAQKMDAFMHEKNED

[3] = biological target: T3, deoxyhypusine synthase N173S, patient-derived variant, His-tagged (human, UniProt P49366 1-369, N173S)
T3 construct: deoxyhypusine synthase (DHS), Homo sapiens, UniProt P49366, residues 1-369, pathological variant N173S; also called DHS^N173S; source: E. coli, purified from the soluble fraction; His-tagged protein labelled with RED-tris-NTA for MST; not shown: His6, N-terminal, kept
T3 sequence (looked up): T1 sequence (looked up) with A137E, N173S

[4] = biological target: T4, deoxyhypusine synthase K329A, His-tagged (human, UniProt P49366 1-369, K329A)
T4 construct: deoxyhypusine synthase (DHS), Homo sapiens, UniProt P49366, residues 1-369; also called DHS^K329A; source: E. coli, purified; His-tagged protein labelled with RED-tris-NTA for MST; not shown: His6, N-terminal, kept
T4 sequence (looked up): T1 sequence (looked up) with A137E, K329A

[5] = biological target: T5, deoxyhypusine synthase W327A, His-tagged (human, UniProt P49366 1-369, W327A)
T5 construct: deoxyhypusine synthase (DHS), Homo sapiens, UniProt P49366, residues 1-369; source: E. coli, purified; His-tagged protein labelled with RED-tris-NTA for MST; not shown: His6, N-terminal, kept
T5 sequence (looked up): T1 sequence (looked up) with A137E, W327A

B1: eukaryotic translation factor 5A-1 (eIF5A-1), residues 15-151 (domain or fragment)
chain: not shown
notes: eIF5A1 (eukaryotic translation factor 5A-1), human, residues 15-151, from pET28-MHL (Addgene); The general purification removes the His tag with TEV; A His-tagged eIF5A1 was used only in the hypusination assay; source: E. coli, purified (HisTrap, TEV cleavage, reverse HisTrap, SEC); not shown: His tag, N-terminal, cleaved
B1 was tested, and the Kd [1] was greater than 1000 nM, the Kd [2] was 80 ± 23.4 nM and the Kd [3] was 115 ± 22.3 nM. For the same binder, the Kd [4] was 129 ± 37.9 nM and the Kd [5] was 602 ± 284 nM.

Source: PMC10042821, “Cryo-EM structure of human eIF5A-DHS complex reveals the molecular basis of hypusination-associated neurodegenerative disorders” (Nature Communications, 2023)
